This passage reports Kd, binding result and Bmax results from US20220193132A1 (NATIONAL RESEARCH COUNCIL OF CANADA, published 2022).

The target of assay [1] is T1, EGFRvIII, full length, overexpressed on glioblastoma cells (human, UniProt P00533 298-623).
T1 construct: Cells overexpress full length EGFRvIII (deletion of exons 2-7 of EGFR); Cell line (U87MG or DKMG) is named under assay; also called U87MG-EGFRvIII; U87vIII
Nature of the assay: flow cytometry dose-response on U87MG EGFRvIII cells, apparent Kd (n=2). (Flow cytometry measures light scatter and fluorescence of single cells or particles in a stream.)
Experimental: (§1) Prior to analysis, cells were plated such that they were not more than 80% confluent on the day of analysis. Unless otherwise stated, all media are kept are 4° C. and all incubations are performed on wet ice. Cells were washed in PBS, harvested by the addition of cell dissociation buffer (Sigma), centrifuged and resuspended in complete medium at a cell density of 2×10⁶ cells/mL. Fifty μL/well of cells were distributed in a polypropylene v-bottom 96 well plate and serial 1/3 dilutions of purified mAbs starting at 100 nM were added and incubated for 2 hours. […] Cells were washed and re-suspended in medium containing Propidium iodide to exclude dead cells from analysis. Samples were filtered through a 60 μm nylon mesh filter plate (Millipore, Ireland) to remove cell aggregates. Flow cytometry analyses were performed on 2,000 viable single-cells events gated on forward scattering, side scattering parameters and propidium iodide dye exclusion using a BD-LSRFortessa flow cytometer (Becton-Dickinson Biosciences, CA, USA) and a standard filter set using BD FACSDiva™ acquisition software, according to manufacturer's instructions.
(§2) These cells were grown in RPMI and 10% fetal bovine serum using standard culturing conditions.

Assay [2] deals with T2, wild type human EGFR, full length, overexpressed on U87MG cells (human, UniProt P00533 25-1210).
T2 construct: also called U87MG-EGFR wt; U87 WT
The experiment in a line: flow cytometry dose-response, U87MG EGFR wt cells.
Experimental: as §1
Specific detection of antibody binding was calculated as the mean fluorescent intensity of binding to each primary antibody after background level subtraction of the mean fluorescent intensity of binding of mouse IgG control. The data were analyzed with GraphPad Prism v 6.0 software using one-site specific binding with Hill slope non-linear regression curve fit model to determine Bmax (maximum specific binding) and Kdₐₚₚ (concentration needed to achieve a half-maximum binding at equilibrium) for each mAb tested.

Assay [3] deals with T1, EGFRvIII, full length, overexpressed on …. Nature of the assay: flow cytometry dose-response on DKMG EGFRvIII cells (n=1).
Experimental: as §1, §2
Assay [4] deals with T3, EGFRvIII fragment amino acid residues 1 to 18, displayed on yeast (human).
T3 construct: also called aa 1-18
T3 peptide: LEEKKGNYVVTDHGSCVR
Nature of the assay: yeast surface display, flow cytometry.
Text: Assessment of the binding of anti-EGFRvIII mAbs to the fusion proteins expressed on yeast cell surface was done by flow cytometry analysis. Briefly, yeast cells were labeled with both the anti-hEGFRvIII mAb and chicken anti-Myc antibody, the latter being used to monitor the level of expression of the fusion protein. Following a wash step, binding of the primary antibodies is probed by a two-color indirect fluorescence labeling using secondary antibodies specific for mouse and chicken antibodies, respectively.

Assay [5] deals with T1, EGFRvIII, full length, overexpressed on …. The experiment in a line: flow cytometry dose-response on DKMG EGFRvIII cells, apparent Kd (n=1).
Experimental: as §1, §2

B1: hFc-13.1.2 (antibody, human IgG1, kappa, V domains shown)
VH: QVQLVESGGGVVQPGRSLRLSCAASGFTFSSYGMHWVRQAPGKGLEWVAVIWYDGSNKYYVDSVKGRFTISRDNSKNTLYLQMNSLRAEDTAVYYCARDGWQQLAPFDYWGQGTLVTVSS
VL: not shown
In the case of B1, the Kd in assay [1] came out at 5.22 nM; in assay [5] it was 0.947 nM. Further, the binding result in assay [2] is recorded as “no binding”; in assay [4], “binds”. In assay [3], this molecule yielded a Bmax of 16500.

B2: hFc-5G6 (antibody, human IgG1, kappa, V domains shown)
VH: EVQLQQSGAELARPGASVKMSCKASGYTFTSYWMHWVKQRPGQGLEWIGAIYPGNSDISYNQKFKGKAKLTAVTSATTAYMELSSLTNEDSAVYYCTLYDYDPDYWGQGTTLTVSS
VL: not shown
notes: Chimeric antibody, mouse variable regions on human IgG1 / human kappa, produced in CHO cells; also called chimeric 5G6
Regarding B2, the Kd in assay [1] was found to be 1.53 nM; in assay [5], 0.832 nM. For the same molecule, the binding result in assay [2] is “no binding”. The molecule also returned a Bmax in assay [3] of 16900.
